Biological target: T1, hSMUG1 WT (Homo sapiens, UniProt Q53HV7 1-270)
T1 sequence: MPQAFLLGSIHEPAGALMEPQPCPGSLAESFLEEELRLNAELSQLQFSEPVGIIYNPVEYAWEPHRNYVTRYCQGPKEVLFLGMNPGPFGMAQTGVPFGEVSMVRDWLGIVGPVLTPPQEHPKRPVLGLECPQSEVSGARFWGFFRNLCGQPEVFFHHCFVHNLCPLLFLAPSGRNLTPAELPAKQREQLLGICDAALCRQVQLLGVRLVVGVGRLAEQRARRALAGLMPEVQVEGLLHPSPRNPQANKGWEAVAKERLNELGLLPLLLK
Experiment: EMSA

B1: T:A (T141A) (dsDNA)
DNA 1: CATAAAGTGTAAAGCCTGG
DNA 2: CCAGGCTTTACACTTTATG
Does B1 bind?
Result: no binding

Reference: PMC1919486
